Results published in paper PMC5797297, “92R Monoclonal Antibody Inhibits Human CCR9^+ Leukemia Cells Growth in NSG Mice Xenografts” (Frontiers in Immunology, 2018).
Positions count from the first letter of the chain named.

B1: 92R, mouse anti-human CCR9 monoclonal antibody (IgG2a) (antibody, V domains shown)
VH: EVKLEESGGGLVQPGGSMKLSCVASGFTFNKFWMNWVRQSPEKGLEWVAEIRLKSNNYATHYAESVKGRFTISRDDSKSSVYLQMNNLRAEDTGIYYCASDGWFAYWGQGTLVTVSA
VL: DVVMTQTPLSLPVSLGDQASISCRSSQSLVHSNGNTYLNWCLQRPGQSPKSLIYKVSNRFSGVPDRFSGSGSGTDFTLKISRVEAEDLGVYFCSQSTHFPRTFGGGTKLEIK
notes: heavy chain variable region of 92R; mouse IgG2a heavy chain constant region (isotype as stated); light chain variable region of 92R; light chain constant region; IgG2a; also called 92R mAb; anti-hCCR9 92R; source: mouse hybridoma, mAb purified from culture supernatants
B2: 91R, mouse anti-human CCR9 monoclonal antibody (IgG2b) (antibody, V domains shown)
VH: B1 VH with E6D, G16R, N30S, K31N, A90T, A99T
VL: DVVMTQTPLSLPVSLGDQTSISCRSSQSLLHSNGNTYVQWYLRKPGQSPKLLIYKVSNRFPGVPDRFSGSGSGTDFTFKISRVEAEDLGVYFCAQSTHVPRTFGGGTKLEIK
notes: heavy chain variable region of 91R; mouse IgG2b heavy chain constant region (isotype as stated); light chain variable region of 91R; light chain constant region; IgG2b; also called 91R mAb; anti-hCCR9 91R; source: mouse hybridoma, mAb purified from culture supernatants

Key:
[1] = target: T1, hCCR9(2–22) synthetic peptide (coat of the ELISA; competitor in SPR) (Homo sapiens, CCR9 isoform A, UniProt P51686); assay: ELISA; competitive ELISA: hCCR9(2–22) peptide coated at 1 µg/ml in PBS overnight at 4°C; biotin-labeled mAb mixed with unlabeled mAb (2 µg/ml in PBS–0.5% BSA), 1 h at room temperature; peroxidase-labeled streptavidin; details: both partners purified
T1 construct: human CCR9 isoform A, residues 2-22; May be the same peptide as m5; also called hCCR9 (aa 2–22) synthetic peptide; peptide hCCR9 (2–22); source: synthetic peptide
T1 chain: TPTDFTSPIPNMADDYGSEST

[2] = target: T2, synthetic peptide hCCR9A aa 2–22 with an additional N-terminal cysteine (Homo sapiens (Human).); assay: SPR; Biacore 3000; Cys-hCCR9A(2–22) peptide amine-coupled at low density to a CM5 chip; mAb as analyte at 0.41 to 33 nM; HBS-EP pH 7.4, 25°C, 30 µl/min; bivalent analyte model; apparent; details: both partners purified
T2 construct: additional cysteine residue at the N terminus; human CCR9 isoform A, residues 2-22; Amine-coupled to a CM5 chip for the kinetic SPR; also called hCCR9 (2–22); source: synthetic peptide
T2 chain: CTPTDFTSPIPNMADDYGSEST

peptide hCCR9 (10–30) = target: T3, peptide hCCR9 (10–30) (Homo sapiens (Human)., UniProt P51686-1); assay: SPR; competition: biotin-K-hCCR9A(2–19) captured on a streptavidin (SA) chip; mAb at 10 nM preincubated 30 min with competitor peptide (0.01–1 µM; 1 µM in Figure 6C,D); HBS-EP pH 7.4; details: both partners purified
T3 construct: human CCR9 isoform A, residues 10-30; source: synthetic peptide
T3 chain: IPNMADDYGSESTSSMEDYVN

[3] = target: T4, peptide hCCR9 (13–30), corresponding to the N-terminus of the B isoform (Homo sapiens, UniProt P51686-1); assay: as above; details: both partners purified
T4 construct: human CCR9, residues 13-30 on the numbering of isoform A (the B isoform starts in M13 of hCCR9-A); source: synthetic peptide
T4 chain: MADDYGSESTSSMEDYVN

[4] = target: T5, human chemokine receptor CCR9, A isoform, on stably transfected HEK-293 cells (Homo sapiens (Human)., UniProt P51686-1); assay: flow cytometry on cells; 2 x 10^5 cells blocked with 40 µg/ml rat IgG, incubated with the primary mAb 30 min at 4°C in PBS pH 7.4 with 0.5% BSA, 1% FBS, 0.1% sodium azide; revealed with FITC- or PE-goat F(ab')2 anti-mouse IgG; details: one partner purified
T5 construct: also called hCCR9-A; hCCR9-HEK-293; source: HEK-293, stably transfected (pCIneo-hCCR9), on cells

[5] = target: T6, endogenous CCR9 on MOLT-4 human T-ALL cells (Homo sapiens (Human)., UniProt P51686); assay: as above; details: one partner purified
T6 construct: human CCR9 as expressed by MOLT-4 cells; also called CCR9^+ MOLT-4 cells; source: endogenous, on MOLT-4 cells
T6 sequence (P51686 whole entry): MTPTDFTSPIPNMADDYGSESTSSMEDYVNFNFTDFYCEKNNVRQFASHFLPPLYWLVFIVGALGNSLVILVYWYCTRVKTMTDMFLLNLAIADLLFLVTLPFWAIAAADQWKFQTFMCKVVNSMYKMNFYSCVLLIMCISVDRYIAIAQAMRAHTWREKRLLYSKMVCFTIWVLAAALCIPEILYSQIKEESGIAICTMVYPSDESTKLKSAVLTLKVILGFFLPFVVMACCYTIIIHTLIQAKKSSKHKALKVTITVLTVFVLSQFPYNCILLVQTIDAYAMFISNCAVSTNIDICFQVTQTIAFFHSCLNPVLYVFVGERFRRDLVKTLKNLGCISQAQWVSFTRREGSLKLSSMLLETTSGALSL

T5 sequence (P51686 whole entry, canonical isoform): as the sequence (P51686 whole entry) above

| Binder | binding result [1] | Kd [2] [nM] | binding result (peptide hCCR9 (10–30)) | binding result [3] | binding result [4] | binding result [5] |
| --- | --- | --- | --- | --- | --- | --- |
| B1 | binds | 8.9 | binds | no binding (tested: 1 µM) | binds | binds |
| B2 | binds | 3.6 | – | no binding (tested: 1 µM) | – | binds |
